{
  "source": "paper PMC4735112",
  "about": "“The Functional Unit of Neisseria meningitidis 3-Deoxy-ᴅ-Arabino-Heptulosonate 7-Phosphate Synthase Is Dimeric” (PLoS ONE, 2016)",
  "key": {"[1]": {"biological_target": "Neisseria meningitidis 3-deoxy-D-arabino-heptulosonate 7-phosphate synthase, R126S variant (N. meningitidis) (UniProt Q9K169)", "experiment": "SEC"}, "[2]": {"biological_target": "Neisseria meningitidis 3-deoxy-D-arabino-heptulosonate 7-phosphate synthase, R126S variant (N. meningitidis) (UniProt Q9K169)", "experiment": "crystal structure"}, "[3]": {"biological_target": "Neisseria meningitidis 3-deoxy-D-arabino-heptulosonate 7-phosphate synthase, R126S variant (N. meningitidis) (UniProt Q9K169)", "experiment": "AUC; sedimentation velocity, 20°C, 10 mM BTP pH 7.3, 100 mM KCl, 200 μM PEP; 0.2, 0.4 and 1.2 mg/mL; continuous size distribution model (SEDFIT)"}, "[4]": {"biological_target": "Neisseria meningitidis 3-deoxy-D-arabino-heptulosonate 7-phosphate synthase, R126S variant (N. meningitidis) (UniProt Q9K169)", "experiment": "SAXS; SEC-coupled small angle X-ray scattering, 25°C, 10 mM BTP pH 7.5, 100 mM KCl, 200 μM PEP; initial 7 mg/mL (wild type) and 12 mg/mL (R126S) prior to SEC; CRYSOL fits to tetramer and tight dimer of the crystal structure"}},
  "data": [
    {"substance": "Neisseria meningitidis 3-deoxy-D-arabino-heptulosonate 7-phosphate synthase, R126S variant (from UniProt Q9K169 1-351) (enzyme)", "values": [
      {"measurement": "stoichiometry N", "setting": "[1]", "value": 2},
      {"measurement": "stoichiometry N", "setting": "[2]", "value": 4},
      {"measurement": "stoichiometry N", "setting": "[3]", "value": 2},
      {"measurement": "stoichiometry N", "setting": "[4]", "value": 2}
    ]}
  ]
}
